Source: patent US20260028391A1

Tests used:
[1] = target: RSV A Randall fusion glycoprotein (F) (RSV A, strain Randall); assay: cell-based or functional assay
[2] = target: RSV B 9719/09 fusion glycoprotein (F) (RSV B, strain 9719/09); assay: cell-based or functional assay
[3] = target: RSV fusion glycoprotein (RSV-F) of the RSV used in the neutralization of Table 33 (respiratory syncytial virus, strain not stated); assay: cell-based or functional assay
[4] = target: fusion glycoprotein (F) of the MPV used in the neutralization of Table 34 (metapneumovirus); assay: cell-based or functional assay
[5] = target: RSV A fusion glycoprotein (F), virus of the neutralisation assays of Tables 54 and 57 (RSV A); assay: cell-based or functional assay
[6] = target: RSV F A G446E (RSV A, strain A2) (UniProt P03420); assay: FACS, % binding to RSV F A variants
[7] = target: RSV F A L203I (RSV A, strain A2) (UniProt P03420); assay: FACS, % binding to RSV F A variants
[8] = target: RSV F A N208Y-N671I (RSV A, strain A2) (UniProt P03420); assay: FACS, % binding to RSV F A variants
[9] = target: RSV F A S433P (RSV A, strain A2) (UniProt P03420); assay: FACS, % binding to RSV F A variants
[10] = target: RSV F A S433P-G446E (RSV A, strain A2) (UniProt P03420); assay: FACS, % binding to RSV F A variants
[11] = target: RSV F A S443P-K445N (RSV A, strain A2) (UniProt P03420); assay: FACS, % binding to RSV F A variants
[12] = target: RSV F A, A2 Ref (RSV A, strain A2) (UniProt P03420); assay: FACS, % binding to RSV F A variants
[13] = target: RSV F B K68N-N201S (RSV B); assay: FACS, % binding to RSV F B variants
[14] = target: RSV F B K68N-N208S (RSV B); assay: FACS, % binding to RSV F B variants
RSV F B N201S (RSV B) = assay: FACS, % binding to RSV F B variants
RSV F B N208D (RSV B) = assay: FACS, % binding to RSV F B variants
RSV F B N208S (RSV B) = assay: FACS, % binding to RSV F B variants
RSV F B S443P (RSV B) = assay: FACS, % binding to RSV F B variants
RSV F B, B Ref (RSV B) = assay: FACS, % binding to RSV F B variants
[15] = target: RSV fusion glycoprotein (RSV-F) of RSV-A (A2) (respiratory syncytial virus A, strain A2) (UniProt P03420); assay: cell-based or functional assay
[16] = target: RSV fusion glycoprotein (RSV-F) of RSV-B (B1) (respiratory syncytial virus B, strain B1) (UniProt O36634); assay: cell-based or functional assay

Substance Palivizumab (antibody) has an IC50, virus neutralization [1] of 0.122 µg/mL and an IC50, virus neutralization [2] of 0.0786 µg/mL.

With palivizumab-rIgG1 (antibody) the IC50 (ng/mL) in neutralization against RSV [3] was 55.2 ng/mL and the IC50 (ng/mL) in neutralization against MPV [4] was greater than 2000 ng/mL.

MK-1654-rIgG1m17,1-YTE (antibody) gave an IC50, neutralization of RSVA [5] of 0.00461 µg/mL, a % binding [6] of 0.049% and a % binding [7] of 62.6%. The % binding [8] was 43.1%, the % binding [9] was 7.14% and the % binding [10] was 1.04%. It also gave a % binding [11] of 0.11%, a % binding [12] of 83.7% and a % binding [13] of 66.7%. The % binding [14] was 65.7%, the % binding (RSV F B N201S (RSV B)) was 64.7% and the % binding (RSV F B N208D (RSV B)) was 63.1%. It also gave a % binding (RSV F B N208S (RSV B)) of 64.3%, a % binding (RSV F B S443P (RSV B)) of 22.6% and a % binding (RSV F B, B Ref (RSV B)) of 63.4%.

For “MEDI8897-rIgG1-YTE (nirsevimab) (antibody)”, the Neutralization (IC50, ng/ml) [15] was 0.2 ng/mL, the Neutralization (IC50, ng/ml) [16] was 0.4 ng/mL and the IC50 (ng/mL) in neutralization against RSV [3] was 0.549 ng/mL. The IC50 (ng/mL) in neutralization against MPV [4] was greater than 2000 ng/mL.
